Patent US20240288446

Target: T1, Human Glu-plasminogen
T1 chain: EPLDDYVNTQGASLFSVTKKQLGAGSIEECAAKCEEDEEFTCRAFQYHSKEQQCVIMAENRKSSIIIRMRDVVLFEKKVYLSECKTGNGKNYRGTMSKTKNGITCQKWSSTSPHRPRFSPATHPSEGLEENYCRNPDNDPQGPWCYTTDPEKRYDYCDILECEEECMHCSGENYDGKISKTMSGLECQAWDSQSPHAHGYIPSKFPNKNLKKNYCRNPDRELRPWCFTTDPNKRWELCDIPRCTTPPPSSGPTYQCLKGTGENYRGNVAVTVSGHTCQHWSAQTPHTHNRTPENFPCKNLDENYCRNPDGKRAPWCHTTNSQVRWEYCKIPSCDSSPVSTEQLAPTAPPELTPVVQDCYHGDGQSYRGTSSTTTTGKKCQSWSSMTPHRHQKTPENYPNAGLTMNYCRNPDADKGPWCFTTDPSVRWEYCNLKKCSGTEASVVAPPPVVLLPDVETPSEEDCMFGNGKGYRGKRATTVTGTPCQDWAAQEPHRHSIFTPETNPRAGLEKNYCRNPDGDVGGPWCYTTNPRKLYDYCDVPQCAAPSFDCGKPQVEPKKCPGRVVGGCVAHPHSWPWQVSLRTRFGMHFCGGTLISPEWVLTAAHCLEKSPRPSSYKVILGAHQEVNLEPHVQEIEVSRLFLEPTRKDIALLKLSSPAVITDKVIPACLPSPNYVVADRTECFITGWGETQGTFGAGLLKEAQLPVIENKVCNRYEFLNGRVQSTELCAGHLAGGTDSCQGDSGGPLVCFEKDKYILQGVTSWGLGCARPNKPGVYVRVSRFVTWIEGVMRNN

B1: Human tissue plasminogen activator (protein)
chain: SYQVICRDEKTQMIYQQHQSWLRPVLRSNRVEYCWCNSGRAQCHSVPVKSCSEPRCFNGGTCQQALYFSDFVCQCPEGFAGKCCEIDTRATCYEDQGISYRGTWSTAESGAECTNWNSSALAQKPYSGRRPDAIRLGLGNHNYCRNPDRDSKPWCYVFKAGKYSSEFCSTPACSEGNSDCYFGNGSAYRGTHSLTESGASCLPWNSMILIGKVYTAQNPSAQALGLGKHNYCRNPDGDAKPWCHVLKNRRLTWEYCDVPSCSTCGLRQYSQPQFRIKGGLFADIASHPWQAAIFAKHRRSPGERFLCGGILISSCWILSAAHCFQERFPPHHLTVILGRTYRVVPGEEEQKFEVEKYIVHKEFDDDTYDNDIALLQLKSDSSRCAQESSVVRTVCLPPADLQLPDWTECELSGYGKHEALSPFYSERLKEAHVRLYPSSRCTSQHLLNRTVTDNMLCAGDTRSGGPQANLHDACQGDSGGPLVCLNDGRMTLVGIISWGLGCGQKDVPGVYTKVTNYLDWIRDNMRP
  conversion of plasminogen into plasmin (plasmin-selective chromogenic substrate): The time- and concentration-dependent conversion of plasminogen into plasmin at the fibrin-NETs lattice was reduced as compared to fibrin alone
